Each block holds one binder with its values, some of them ahead of it.
What was measured:
Experiment in all cases: cell-based or functional assay
human PD-L1 on cells = human PD-L1 on cells (human, UniProt Q9NZQ7 19-290)
[1] = target: T1, CD137 on Jurkat NFkB reporter cells (human, UniProt Q07011 24-255)
[2] = target: T1, CD137 on Jurkat NFkB reporter cells; remark: listed apart in the source
[3] = target: T1, CD137 on Jurkat NFkB reporter cells; remark: listed apart in the source
[4] = target: T1, CD137 on Jurkat NFkB reporter cells; remark: listed apart in the source
[5] = target: T1, CD137 on Jurkat NFkB reporter cells; remark: listed apart in the source
[6] = target: T1, CD137 on Jurkat NFkB reporter cells; remark: listed apart in the source
[7] = target: T1, CD137 on Jurkat NFkB reporter cells; remark: listed apart in the source

B3: PRO1123 (bispecific antibody)
chain: DIQMTQSPSSLSASVGDRVTITCQASQSINDYLAWYQQKPGKAPKLLIYKASTLASGVPSRFSGSGSGTDFTLTISSLQPEDFATYYCQQGYIITDIDNVFGTGTKVTVLGGGGGSQVQLQESGPGLVKPSETLSLTCKVSGFSFSNSYWICWVRQPPGKGLEWIGCTFVGSSDSTYYANWAKGRVTISVDSSKNQVSLKLSSVTAADTAVYFCARHPSDAVYGYANNLWGQGTLVTVSSGGGGSGGGGSGGGGSGGGGSIQMTQSPSSLSASVGDRVTITCQASQSINNVLAWYQQKPGKPPKLLIYRASTLASGVPSRFSGSGSGTDFTLTISSLQPEDFATYYCQSSYGNYGDFGTGTKVTVLGGGGGSQVQLQESGPGLVKPSETLSLTCKVSGFSFSSGYDMCWIRQPPGKGLEWIGCVVAGSVDITYYASWAKGRVTISVDSSKNQFSLKLSSVTAADTAVYYCARKDAYSDAFNLWGQGTLVTVSS
EC50, NFkB-luciferase reporter, CHO-PD-L1 cells [1]: 0.00575 µg/mL
EC50, NFkB-luciferase reporter, HCC827 cells without IFNg [2]: 0.0161 µg/mL
EC50, NFkB-luciferase reporter, HCC827 cells stimulated with IFNg [3]: 0.0119 µg/mL
max. activation (%), NF-kB reporter, CHO-PD-L1 [4]: 219%
max. activation (%), NF-kB reporter, HCC827 +IFNg [4]: 154%
max. activation (%), NF-kB reporter, HCC827 -IFNg [4]: 123%

B4: PRO1058 (other)
chain: DIQMTQSPSSLSASVGDRVTITCQASQSINDYLAWYQQKPGKAPKLLIYKASTLASGVPSRFSGSGSGTDFTLTISSLQPEDFATYYCQQGYIITDIDNVFGTGTKVTVLGGGGGSQVQLQESGPGLVKPSETLSLTCKVSGFSFNNDYDMCWIRQPPGKGLEWIGCIDTGDGSTYYASWAKGRVTISVDSSKNQFSLKLSSVTAADTAVYYCAREAASSSGYGMGYFDLWGQGTLVTVSSGGGGSGGGGSGGGGSGGGGSIQMTQSPSSLSASVGDRVTITCQSSQSVYDNNWLAWYQQKPGKAPKLLIYRASNLASGVPSRFSGSGSGTDFTLTISSLQPEDFATYYCQGTYLSSNWYWAFGTGTKVTVLGGGGGSQVQLQESGPGLVKPSETLSLTCKVSGFSFSSGYDMCWIRQPPGKGLEWIGCVVAGSVDITYYASWAKGRVTISVDSSKNQFSLKLSSVTAADTAVYYCARKDAYSDAFNLWGQGTLVTVSSGGGGSGGGGSVVMTQSPSSLSASVGDRVTITCQASQIISSRSAWYQQKPGQPPKLLIYQASKLASGVPSRFSGSGSGTDFTLTISSLQPEDFATYYCQCTYIDSNFGAFGGGTKLTVLGGGGGSGGGGSGGGGSGGGGSEVQLVESGGGLVQPGGSLRLSCAASGFSFSSSYWICWVRQAPGKGLEWVGCVFTGDGTTYYASWAKGRFTISRDNSKNTVYLQMNSLRAEDTATYFCARPVSVYYYGMDLWGQGTLVTVSS
EC50, NFkB-luciferase reporter, PD-L1 expressing CHO cells, 6h, + HSA [5]: 0.0709 µg/mL
EC50, NFkB-luciferase reporter, PD-L1 expressing CHO cells, 24h, + HSA [6]: 0.121 µg/mL
max. activation (%), NF-kB reporter, CHO-PD-L1, HSA yes, 24h [4]: 36.2%

B6: PRO1057 (other)
chain: DIQMTQSPSSLSASVGDRVTITCQASQSINDYLAWYQQKPGKAPKLLIYKASTLASGVPSRFSGSGSGTDFTLTISSLQPEDFATYYCQQGYIITDIDNVFGTGTKVTVLGGGGGSQVQLQESGPGLVKPSETLSLTCKVSGFSFSNSYWICWIRQPPGKGLEWIGCTFVGSSDSTYYANWAKGRVTISVDSSKNQFSLKLSSVTAADTAVYYCARHPSDAVYGYANNLWGQGTLVTVSSGGGGSGGGGSGGGGSGGGGSIQMTQSPSSLSASVGDRVTITCQASQSINNVLAWYQQKPGKAPKLLIYRASTLASGVPSRFSGSGSGTDFTLTISSLQPEDFATYYCQSSYGNYGDFGTGTKVTVLGGGGGSQVQLQESGPGLVKPSETLSLTCKVSGFSFSSGYDMCWIRQPPGKGLEWIGCVVAGSVDITYYASWAKGRVTISVDSSKNQFSLKLSSVTAADTAVYYCARKDAYSDAFNLWGQGTLVTVSSGGGGSGGGGSVVMTQSPSSLSASVGDRVTITCQASQIISSRSAWYQQKPGQPPKLLIYQASKLASGVPSRFSGSGSGTDFTLTISSLQPEDFATYYCQCTYIDSNFGAFGGGTKLTVLGGGGGSGGGGSGGGGSGGGGSEVQLVESGGGLVQPGGSLRLSCAASGFSFSSSYWICWVRQAPGKGLEWVGCVFTGDGTTYYASWAKGRFTISRDNSKNTVYLQMNSLRAEDTATYFCARPVSVYYYGMDLWGQGTLVTVSS
IC50, NFAT-luciferase reporter gene assay, with HSA (human PD-L1 on cells): 0.665 µg/mL
EC50, NFkB-luciferase reporter, PD-L1 expressing CHO cells, 6h, + HSA [5]: 0.112 µg/mL
EC50, NFkB-luciferase reporter, PD-L1 expressing CHO cells, 24h, + HSA [6]: 0.792 µg/mL
EC50, NFkB-luciferase reporter, HCC827 with IFNy stimulation, 24h, +HSA [7]: 0.115 µg/mL
EC50, NFkB-luciferase reporter, HCC827 without IFNy stimulation, 24h, +HSA [7]: 0.0766 µg/mL
max. activation (%), NF-kB reporter, CHO-PD-L1, HSA yes, 24h [4]: 663%

B8: PRO1060 (bispecific antibody, human IgG1, kappa, L234A L235A)
light: DIQMTQSPSSLSASVGDRVTITCQASQSINDYLAWYQQKPGKAPKLLIYKASTLASGVPSRFSGSGSGTDFTLTISSLQPEDFATYYCQQGYIITDIDNVFGTGTKVTVLGTVAAPSVFIFPPSDEQLKSGTASVVCLLNNFYPREAKVQWKVDNALQSGNSQESVTEQDSKDSTYSLSSTLTLSKADYEKHKVYACEVTHQGLSSPVTKSFNRGEC
heavy: QVQLQESGPGLVKPSETLSLTCKVSGFSFSSGYDMCWIRQPPGKGLEWIGCVVAGSVDITYYASWAKGRVTISVDSSKNQFSLKLSSVTAADTAVYYCARKDAYSDAFNLWGQGTLVTVSSASTKGPSVFPLAPSSKSTSGGTAALGCLVKDYFPEPVTVSWNSGALTSGVHTFPAVLQSSGLYSLSSVVTVPSSSLGTQTYICNVNHKPSNTKVDKRVEPKSCDKTHTCPPCPAPEAAGGPSVFLFPPKPKDTLMISRTPEVTCVVVDVSHEDPEVKFNWYVDGVEVHNAKTKPREEQYNSTYRVVSVLTVLHQDWLNGKEYKCKVSNKALGAPIEKTISKAKGQPREPQVYTLPPSREEMTKNQVSLTCLVKGFYPSDIAVEWESNGQPENNYKTTPPVLDSDGSFFLYSKLTVDKSRWQQGNVFSCSVMHEALHNHYTQKSLSLSPGKGGGGSGGGGSIQMTQSPSSLSASVGDRVTITCQASQSINNVLAWYQQKPGKAPKLLIYRASTLASGVPSRFSGSGSGTDFTLTISSLQPEDFATYYCQSSYGNYGDFGTGTKVTVLGGGGGSGGGGSGGGGSGGGGSQVQLQESGPGLVKPSETLSLTCKVSGFSFSNSYWICWIRQPPGKGLEWIGCTFVGSSDSTYYANWAKGRVTISVDSSKNQFSLKLSSVTAADTAVYYCARHPSDAVYGYANNLWGQGTLVTVSS
IC50, NFAT-luciferase reporter gene assay (human PD-L1 on cells): 0.133 µg/mL
EC50, NFkB-luciferase reporter, PD-L1 expressing CHO cells, 6h [5]: 0.0564 µg/mL
EC50, NFkB-luciferase reporter, PD-L1 expressing CHO cells, 24h [6]: 0.0808 µg/mL
EC50, NFkB-luciferase reporter, HCC827 with IFNy stimulation, 24h [7]: 0.0175 µg/mL
EC50, NFkB-luciferase reporter, HCC827 without IFNy stimulation, 24h [7]: 0.0136 µg/mL

The next lines start with the values.

IC50, NFAT-luciferase reporter gene assay (human PD-L1 on cells): 0.0429 µg/mL
B1: PRO830 (scFv)
scFv: DIQMTQSPSSLSASVGDRVTITCQASQSINDYLAWYQQKPGKAPKLLIYKASTLASGVPSRFSGSGSGTDFTLTISSLQPEDFATYYCQQGYIITDIDNVFGTGTKVTVLGGGGGSGGGGSGGGGSGGGGSQVQLQESGPGLVKPSETLSLTCKVSGFSFSSGYDMCWIRQPPGKGLEWIGCVVAGSVDITYYASWAKGRVTISVDSSKNQFSLKLSSVTAADTAVYYCARKDAYSDAFNLWGQGTLVTVSS

IC50, NFAT-luciferase reporter gene assay (human PD-L1 on cells): 0.0938 µg/mL
B2: PRO1059 (bispecific antibody, human IgG1, kappa, L234A L235A)
light: DIQMTQSPSSLSASVGDRVTITCQASQSINDYLAWYQQKPGKAPKLLIYKASTLASGVPSRFSGSGSGTDFTLTISSLQPEDFATYYCQQGYIITDIDNVFGTGTKVTVLGTVAAPSVFIFPPSDEQLKSGTASVVCLLNNFYPREAKVQWKVDNALQSGNSQESVTEQDSKDSTYSLSSTLTLSKADYEKHKVYACEVTHQGLSSPVTKSFNRGECGGGGSGGGGSIQMTQSPSSLSASVGDRVTITCQASQSINNVLAWYQQKPGKAPKLLIYRASTLASGVPSRFSGSGSGTDFTLTISSLQPEDFATYYCQSSYGNYGDFGTGTKVTVLGGGGGSGGGGSGGGGSGGGGSQVQLQESGPGLVKPSETLSLTCKVSGFSFSNSYWICWIRQPPGKGLEWIGCTFVGSSDSTYYANWAKGRVTISVDSSKNQFSLKLSSVTAADTAVYYCARHPSDAVYGYANNLWGQGTLVTVSS
heavy: QVQLQESGPGLVKPSETLSLTCKVSGFSFSSGYDMCWIRQPPGKGLEWIGCVVAGSVDITYYASWAKGRVTISVDSSKNQFSLKLSSVTAADTAVYYCARKDAYSDAFNLWGQGTLVTVSSASTKGPSVFPLAPSSKSTSGGTAALGCLVKDYFPEPVTVSWNSGALTSGVHTFPAVLQSSGLYSLSSVVTVPSSSLGTQTYICNVNHKPSNTKVDKRVEPKSCDKTHTCPPCPAPEAAGGPSVFLFPPKPKDTLMISRTPEVTCVVVDVSHEDPEVKFNWYVDGVEVHNAKTKPREEQYNSTYRVVSVLTVLHQDWLNGKEYKCKVSNKALGAPIEKTISKAKGQPREPQVYTLPPSREEMTKNQVSLTCLVKGFYPSDIAVEWESNGQPENNYKTTPPVLDSDGSFFLYSKLTVDKSRWQQGNVFSCSVMHEALHNHYTQKSLSLSPGK

IC50, NFAT-luciferase reporter gene assay (human PD-L1 on cells): 0.0213 µg/mL
B5: PRO1013 (scFv)
scFv: DIQMTQSPSSLSASVGDRVTITCQASQSIGTYLAWYQQKPGKAPKLLIYRAFILASGVPSRFSGSGSGTDFTLTISSLQPEDFATYYCQSNFYSDSTTIGPNAFGTGTKVTVLGGGGGSGGGGSGGGGSGGGGSQVQLVQSGAEVKKPGASVKVSCKASGFSFNSDYWIYWVRQAPGQGLEWMGSIYGGSSGNTQYASWAQGRVTMTRDTSISTAYMELSSLRSEDTAVYYCARGYVDYGGATDLWGQGTLVTVSS

IC50, NFAT-luciferase reporter gene assay, with HSA (human PD-L1 on cells): 0.275 µg/mL
max. activation (%), NF-kB reporter, CHO-PD-L1, HSA yes, 24h [4]: 369%
B7: PRO963 (other)
chain: DIQMTQSPSSLSASVGDRVTITCQASQSINDYLAWYQQKPGKAPKLLIYKASTLASGVPSRFSGSGSGTDFTLTISSLQPEDFATYYCQQGYIITDIDNVFGTGTKVTVLGGGGGSQVQLQESGPGLVKPSETLSLTCKVSGFSFSNSYWICWIRQPPGKGLEWIGCTFVGSSDSTYYANWAKGRVTISVDSSKNQFSLKLSSVTAADTAVYYCARHPSDAVYGYANNLWGQGTLVTVSSGGGGSGGGGSGGGGSGGGGSIQMTQSPSSLSASVGDRVTITCQASQSINNVLAWYQQKPGKAPKLLIYRASTLASGVPSRFSGSGSGTDFTLTISSLQPEDFATYYCQSSYGNYGDFGTGTKVTVLGGGGGSQVQLQESGPGLVKPSETLSLTCKVSGFSFSSGYDMCWIRQPPGKGLEWIGCVVAGSVDITYYASWAKGRVTISVDSSKNQFSLKLSSVTAADTAVYYCARKDAYSDAFNLWGQGTLVTVSSGGGGSGGGGSIQMTQSPSSLSASVGDRVTITCQSSESVYSNNQLSWYQQKPGQPPKLLIYDASDLASGVPSRFSGSGSGTDFTLTISSLQPEDFATYYCAGGFSSSSDTAFGGGTKLTVLGGGGGSGGGGSGGGGSGGGGSEVQLVESGGGLVQPGGSLRLSCAASGFSLSSNAMGWVRQAPGKGLEYIGIISVGGFTYYASWAKGRFTISRDNSKNTVYLQMNSLRAEDTATYFCARDRHGGDSSGAFYLWGQGTLVTVSS

— patent publication EP3470426A1 (Numab Therapeutics AG, dated 2019)
